Data: paper PMC4622529
Several values for one entry are separate records, joined by “and”; a condition that tells them apart may be missing. Equal entries are not always repeated. Where two headings read alike, the source gives them in different places. One block for each molecule: values may come before it.

Key:
Test in all cases: SPR
[1] = biological target: trastuzumab hIgG1 N434Y (homodimer) (human)
[2] = biological target: trastuzumab hIgG1 wild type (homodimer) (human)
[3] = biological target: trastuzumab hIgG1 N434Y (homodimer) (human); remark: listed apart in the source
[4] = biological target: trastuzumab hIgG1 N434H (homodimer) (human)
[5] = biological target: rat FcRn (FcRn/β2m heterodimer, soluble extracellular domain) (rat) (UniProt P13599)
[6] = biological target: mouse FcRn (FcRn/β2m heterodimer, soluble extracellular domain) (mouse) (UniProt Q61559)
[7] = biological target: rat FcRn (FcRn/β2m heterodimer, soluble extracellular domain) (rat) (UniProt P13599); remark: listed apart in the source
[8] = biological target: mouse FcRn (FcRn/β2m heterodimer, soluble extracellular domain) (mouse) (UniProt Q61559); remark: listed apart in the source
[9] = biological target: trastuzumab hIgG1 I253A:WT E:R heterodimer (human)
human IgG4 (human) = biological target: human IgG4 (human)
[10] = biological target: trastuzumab hIgG1 AAA:WT E:R heterodimer (human)
[11] = biological target: trastuzumab hIgG1 AAA:N434H E:R heterodimer (human)
mouse IgG2a (mouse) = biological target: mouse IgG2a (mouse)
human IgG3 (human) = biological target: human IgG3 (human)
[12] = biological target: trastuzumab hIgG1 WT R arm (parental) (human)
[13] = biological target: trastuzumab hIgG1 WT:WT E:R heterodimer (human)
[14] = biological target: trastuzumab hIgG1 AAA:N434Y E:R heterodimer (human)
[15] = biological target: trastuzumab hIgG1 N434Y R arm (parental) (human)
[16] = biological target: trastuzumab hIgG1 WT E arm (parental) (human)
[17] = biological target: rat FcRn (FcRn/β2m heterodimer, soluble extracellular domain) (rat) (UniProt P13599); remark: listed apart in the source
[18] = biological target: mouse FcRn (FcRn/β2m heterodimer, soluble extracellular domain) (mouse) (UniProt Q61559); remark: listed apart in the source
[19] = biological target: mouse FcRn (FcRn/β2m heterodimer, soluble extracellular domain) (mouse) (UniProt Q61559); remark: listed apart in the source
[20] = biological target: rat IgG2a (panel of unrelated mAbs of subtype rIgG2a) (rat)
[21] = biological target: cynomolgus monkey IgG1 (cynomolgus monkey)
[22] = biological target: cynomolgus monkey IgG2 (cynomolgus monkey)
rat IgG1 (rat) = biological target: rat IgG1 (rat)
rat IgG2c (rat) = biological target: rat IgG2c (rat)
[23] = biological target: rhesus monkey IgG1 (rhesus monkey)
rat IgG2b (rat) = biological target: rat IgG2b (rat)
[24] = biological target: human IgG1 (category of several hIgG1 molecules) (human)
mouse IgG3 (mouse) = biological target: mouse IgG3 (mouse)
[25] = biological target: rhesus monkey IgG2 (rhesus monkey)
mouse IgG1 (mouse) = biological target: mouse IgG1 (mouse)
[26] = biological target: rat IgG2a (panel of unrelated mAbs of subtype rIgG2a) (rat); remark: listed apart in the source
mouse IgG2b (mouse) = biological target: mouse IgG2b (mouse)
[27] = biological target: human IgG2 (category of several hIgG2 molecules) (human)

Kd [1]: 455 nM
Kd [2]: 84 nM
Kd [3]: 4.5 nM
Kd [4]: 9.9 nM
Molecule: rat FcRn (FcRn/β2m heterodimer, soluble extracellular domain) (from UniProt P13599;P07151) (receptor)

Kd [5]: 46 nM
Kd [6]: 54 nM
Kd [7]: 67 nM
Kd [8]: 49 nM
Molecule: trastuzumab hIgG1 AAA:WT E:R heterodimer (antibody)

Kd (human IgG4 (human)): 258 nM and 266 nM and 450 nM
Kd (human IgG3 (human)): 188 nM and 213 nM and 387 nM
Molecule: cynomolgus monkey FcRn (FcRn/β2m heterodimer, soluble extracellular domain) (from UniProt Q8SPV9;Q8SPW0) (receptor)

Kd [5]: 3.3 nM
Kd [6]: 0.292 nM
Kd [17]: 460 nM
Kd [18]: 36 nM
Molecule: trastuzumab hIgG1 N434Y (homodimer) (antibody)

Kd (human IgG4 (human)): 717 nM and 973 nM
Kd (human IgG3 (human)): 585 nM and 898 nM
Molecule: human FcRn (FcRn/β2m heterodimer, soluble extracellular domain) (from UniProt P55899;P61769) (receptor)

Kd [5]: 4.9 nM
Kd [6]: 3.8 nM
Kd [7]: 8 nM
Kd [8]: 3.6 nM
Molecule: trastuzumab hIgG1 AAA:N434H E:R heterodimer (antibody)

Second part, the molecule before the results:

Molecule: mouse FcRn (FcRn/β2m heterodimer, soluble extracellular domain) (from UniProt Q61559;P01887) (receptor)
Kd [1]: 44.1 nM
Kd [9]: 58 nM
Kd (human IgG4 (human)): 116 nM and 197 nM and 183 nM
Kd [10]: 58 nM
stoichiometry N [10]: 1 FcRn per IgG
Kd [2]: 58 nM
stoichiometry N [2]: 2 FcRn per IgG
Kd [3]: 0.47 nM
stoichiometry N [3]: 2 FcRn per IgG
stoichiometry N [11]: 1 FcRn per IgG
Kd (mouse IgG2a (mouse)): 490 nM and 931 nM
Kd (human IgG3 (human)): 230 nM and 353 nM and 328 nM
Kd [12]: 58 nM
Kd [13]: 58 nM
Kd [14]: 0.47 nM
stoichiometry N [14]: 1 FcRn per IgG
Kd [15]: 0.47 nM
stoichiometry N [4]: 2 FcRn per IgG
Kd [16]: 58 nM

Molecule: trastuzumab hIgG1 wild type (homodimer) (antibody)
Kd [5]: 49 nM
Kd [6]: 48 nM

Molecule: trastuzumab hIgG1 N434H (homodimer) (antibody)
Kd [5]: 5.4 nM
Kd [6]: 3.7 nM

Molecule: trastuzumab hIgG1 AAA:N434Y E:R heterodimer (antibody)
Kd [5]: 2.7 nM
Kd [6]: 0.28 nM
Kd [18]: 50 nM and 52 nM
Kd [19]: 66 nM
Kd [7]: 3.5 nM
Kd [8]: 0.35 nM

B1: rat FcRn (FcRn/β2m heterodimer, soluble extracellular domain) (receptor)
chain 1: AEPRLPLMYHLAAVSDLSTGLPSFWATGWLGAQQYLTYNNLRQEADPCGAWIWENQVSWYWEKETTDLKSKEQLFLEAIRTLENQINGTFTLQGLLGCELAPDNSSLPTAVFALNGEEFMRFNPRTGNWSGEWPETDIVGNLWMKQPEAARKESEFLLTSCPERLLGHLERGRQNLEWKEPPSMRLKARPGNSGSSVLTCAAFSFYPPELKFRFLRNGLASGSGNCSTGPNGDGSFHAWSLLEVKRGDEHHYQCQVEHEGLAQPLTVDL
chain 2: IQKTPQIQVYSRHPPENGKPNFLNCYVSQFHPPQIEIELLKNGKKIPNIEMSDLSFSKDWSFYILAHTEFTPTETDVYACRVKHVTLKEPKTVTWDRDM
Kd [20]: 44 nM and 69 nM and 55 nM
koff [20]: 0.0119 s⁻¹
kon [20]: 220000 M⁻¹ s⁻¹
Kd [21]: 88 nM and 123 nM
Kd (human IgG4 (human)): 123 nM and 149 nM and 145 nM
Kd [22]: 38 nM and 51 nM
Kd (rat IgG1 (rat)): 285 nM and 329 nM
Kd (rat IgG2c (rat)): 452 nM and 617 nM
Kd [23]: 88 nM and 119 nM
Kd (mouse IgG2a (mouse)): 97 nM and 150 nM
Kd (human IgG3 (human)): 313 nM and 357 nM and 366 nM
Kd (rat IgG2b (rat)): 186 nM and 248 nM
Kd [24]: 68 nM and 135 nM
Kd (mouse IgG3 (mouse)): 183 nM
Kd [25]: 41 nM and 51 nM
Kd (mouse IgG1 (mouse)): 501 nM and 567 nM
Kd [26]: 45 nM and 76 nM
Kd (mouse IgG2b (mouse)): 332 nM and 368 nM
Kd [27]: 53 nM and 93 nM
